From PMC9015148 (2022) come the findings set out here.

By Kd is commonly meant the concentration at which binding is half-saturated.

For one assay, the target named is Surf_03 (UniProt P0AFA2). In words: SPR. (In SPR one partner is held on a chip, and binding of the other changes the refractive index at the surface.)
A further assay deals with RSV_FixBB (UniProt P0AFA2). In words: SPR.

B1: D25 Fab (Fab, V domains shown)
VH: QVQLVQSGAEVKKPGSSVMVSCQASGGPLRNYIINWLRQAPGQGPEWMGGIIPVLGTVHYAPKFQGRVTITADESTDTAYIHLISLRSEDTAMYYCATETALVVSTTYLPHYFDNWGQGTLVTVSS
VL: DIQMTQSPSSLSAAVGDRVTITCQASQDIVNYLNWYQQKPGKAPKLLIYVASNLETGVPSRFSGSGSGTDFSLTISSLQPEDVATYYCQQYDNLPLTFGGGTKVEIK
As to B1, the Kd in the assay with Surf_03 came to 0.36 µM; in the assay with RSV_FixBB it was 0.099 µM.
